Biological target: spike glycoprotein of live SARS-CoV-2 (isolate USA-WA1/2020) (SARS-CoV-2) (UniProt P0DTC2)
Assay: cell-based or functional assay

S2E12-LS (antibody)
EC50 (live SARS-CoV-2-luc neutralisation, MOI 0.1, 6 h): 5 ng/mL | EC90 (live SARS-CoV-2-luc neutralisation, MOI 0.1, 6 h): 30 ng/mL | IC50 (live SARS-CoV-2-luc neutralisation, MOI 0.1, 6 h): 4.84 ng/mL
